From patent US20220073586A1

Target: PD-L1 antigen (coated on 96-well immunoplate) (UniProt Q9NZQ7)
Assay: single antigen ELISA, PD-L1 coated at 1 ug/mL, detection with anti-hFc-HRP

Sequence of PD-L1 antigen (coated on 96-well immunoplate) (Q9NZQ7 19-238 limits assumed): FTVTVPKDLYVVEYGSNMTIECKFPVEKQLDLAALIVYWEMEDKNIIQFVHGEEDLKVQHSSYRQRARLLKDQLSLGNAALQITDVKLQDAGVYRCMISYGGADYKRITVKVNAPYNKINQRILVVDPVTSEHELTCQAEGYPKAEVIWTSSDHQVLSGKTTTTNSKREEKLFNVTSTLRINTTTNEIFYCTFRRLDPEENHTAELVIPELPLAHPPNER

- EC50 (read off the curve): 0.03 µg/mL
Substance: Tecentriq (Genetech, atezolizumab, anti-PD-L1 antibody)
